Holding throughout (test): fluorescence anisotropy
A general note: Fluorescence polarisation rises when a labelled molecule tumbles more slowly, as on binding a larger partner.

Data set [1] deals with T1, Sub1 (Saccharomyces cerevisiae, UniProt P54000 1-292).
T1 sequence: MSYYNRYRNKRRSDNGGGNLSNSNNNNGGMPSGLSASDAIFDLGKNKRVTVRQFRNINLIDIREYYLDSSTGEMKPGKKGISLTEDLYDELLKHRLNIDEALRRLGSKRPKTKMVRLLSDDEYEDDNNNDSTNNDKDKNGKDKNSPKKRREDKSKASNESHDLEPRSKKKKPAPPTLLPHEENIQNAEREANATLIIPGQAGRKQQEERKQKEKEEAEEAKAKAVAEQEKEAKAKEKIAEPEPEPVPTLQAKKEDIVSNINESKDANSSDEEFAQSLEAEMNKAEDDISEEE

Another data set addresses PC4 (hSub1, p15) (human, UniProt P53999 1-127).
Data set [2] addresses T1, Sub1. The source holds these as a separate data set.

Where two headings read alike, the source gives them in different places.

In general, Kd refers to the constant that tells how readily two partners part at equilibrium. A higher Kd goes with lower affinity. The molecule GAGCTGGGGTGAGCTGGGCTGAGCTGGGGTGAGCTGGGCTGAGCT (structured_DNA) [SµG (FAM)] showed a dissociation constant (Kd) with Sub1 [1] of 8.7 ± 1.7 nM.

B1: Duplex (FAM) (dsDNA)
DNA 1: GATACTATTGGGTGGGTAGGGTGGGTTTACATGT
DNA 2: ACATGTAAACCCACCCTACCCACCCAATAGTATC
Turning to B1, the Kd in the data set with PC4 (hSub1, p15) came out at 38.7 ± 8 nM. In addition, the binding result in the data set with Sub1 [1] is given as “no binding”.
As to GGTGTGTGGAGCGTGCGTTT (ssDNA) [ssDNA (FAM)], the Kd is 9 ± 0.9 nM in the data set with PC4 (hSub1, p15) and 21.2 ± 1.1 nM with Sub1 [2].

For the origin of these results see paper PMC5449603.
